Data as given in patent publication US20110182887A1 (AstraZeneca / MedImmune, published 2011).

B1: HB227RHC heavy chain + chimeric HB22.7 light chain (chL) (antibody, human IgG1, V domains shown)
VH: QVQLQESGPALVKPTQTLTLTCTFSGFSLSDYGVNWIRQPPGKALEWLGIIWGDGRTDYNSALKSRLSISKDNSKNQVVLRMTNVDPVDTATYFCARAPGNRAMEYWGQGTVVTVSS
VL: SIVMTQTPKFLLVSAGDRITLTCKASQSVTNDVAWYQQKPGQSPKLLIYYASNRYTGVPDRFTGSGYGTDFTFTISTVQAEDLAVYFCQQDYRSPWTFGGGTKLEI
notes: Human IgG1 kappa, COS-7 supernatant; The VH entry may include the leader; also called RHC+chL
B2: parental mouse monoclonal anti-CD22 antibody HB22.7 (antibody, V domains shown)
VH: QVQLKESGPGLVAPSQSLSITCTVSGFSLSDYGVNWVRQIPGKGLEWLGIIWGDGRTDYNSALKSRLNISKDNSKSQVFLKMNSLKADDTARYYCARAPGNRAMEYWGQGTSVTVS
VL: SIVMTQTPKFLLVSAGDRITLTCKASQSVTNDVAWYQQKPGQSPKLLIYYASNRYTGVPDRFTGSGYGTDFTFTISTVQAEDLAVYFCQQDYRSPWTFGGGTKLEI
notes: Mouse antibody from hybridoma ATCC HB11347; It was labelled with Alexa-fluor in some cell assays; also called mouse HB22.7; murine HB22.7

Assays:
[1] = molecular target: T1, human CD22 (hCD22) expressed on the cell surface (human, UniProt P20273 20-847); experiment: BHK-CD22 cell ELISA, COS-7 supernatant
T1 construct: whole, on cells; One molecule is used for all cell-surface formats; also called human CD22 antigen; BHK-CD22

[2] = molecular target: T1, human CD22 (hCD22) expressed on the …; experiment: flow cytometry on CHO cells transfected with human CD22, labelled secondary antibody, median fluorescence intensity
Experimental: CHO cells expressing hCD22 were prepared by transfection with a plasmid encoding human CD22 using the Lipofectamine procedure. […] Cells were incubated on ice for 20 minutes then washed and resuspended in PBS followed by addition of secondary antibody, either a goat anti-human (GAH) or GAM-F(ab)′2 anti human-RPE at a 1:1000 dilution. Cells were incubated on ice for an additional 10 minutes and binding activity was evaluated via FACS analysis on a Guava flow cytometer.

[3] = molecular target: hCD22 (ligand immobilised on the BIAcore CM5 sensor chip) (human, UniProt P20273 20-687, limits assumed); experiment: SPR (BIAcore 3000), hCD22 immobilised on CM5 chip, IgG injected, 1:1 model
Experimental: Binding affinity of HB22.7 and RHOv2ACD/RKA were determined on a BIAcore 3000 instrument (BIAcore, Inc., Uppsala, Sweden). The ligand, hCD22, was prepared at 50 nM in 10 mM NaOAc, pH4 buffer. It was injected onto an EDC/NHS-activated CM5 sensor chip (BIAcore, Inc. Uppsala, Sweden) using a standard immobilization protocol. Following this, any unreacted active ester moieties were quenched using 1M Et-NH2 (ethanolamine; coupling reagents purchased from BIAcore, Inc.). A total of 535 and 689 RUs hCD22 remained bound to two sensor chip surfaces used in these experiments. Separately, a blank surface was prepared on each sensor chip using the identical protocol (minus protein). The blank surfaces were used as a reference cell in the experiments, and served to correct for both non-specific binding and some housekeeping artifacts.
For the kinetic experiments, HB22.7 and RHOv2ACD/RKA were prepared as two dilution series, starting at 22 nM and 100 nM, then diluted three- and two-fold, respectively, down to final concentrations of 0.03 nM and 0.39 nM in HBS-EP buffer (BIAcore, Inc., consisting of the following: 10 mM HEPES buffer, pH7.4, 150 mM NaCl, 3 mM EDTA, and 0.005% P20). Each concentration of IgG was then injected over both the CD22 and reference cell surfaces, which are connected in series. Between injections, surfaces were regenerated with a 1-minute injection of 3M MgCl2.

[4] = molecular target: T1, human CD22 (hCD22) expressed on the …; experiment: cell ELISA on BHK cells expressing human CD22, goat anti-mouse Ig-HRP, OD 450 nm
Source text: The BHK-CD22 binding assay was used to test the binding activity of the chHB227 antibody in the transiently transformed COS 7 culture supernatants. A goat anti-human Ig-HRP conjugate (Sigma Chemicals) was used to detect binding of chHB22.7 mAb while a goat anti-mouse Ig-HRP conjugate (Southern Biotechnology) was used to detect binding of the parental mouse HB22.7 mAb. The bound HRP conjugates were exposed to the substrate o-phenyldiamine (OPD) and the resulting products detected at 450 nm.

[5] = molecular target: T1, human CD22 (hCD22) expressed on the …; experiment: competitive cell ELISA on CD22; increasing mouse HB22.7 mixed with 250 ng/ml chHB227 (competitor); mouse HB22.7 titrated against 250 ng/ml chimeric antibody
Experimental: To confirm the binding effectiveness of the RHF+RKC humanized antibody, a competitive ELISA was performed with increasing amounts of the mouse HB22.7 antibody mixed with 250 ng/ml of chimeric or humanized antibody.

Row | Binder | fold better binding than HB227RHB with the same chimeric light chain [1] [fold] | EC50 (read off the curve) [2] [ug mAb per 10e6 cells] | Kd [3] [nM] | koff [3] [s⁻¹] | kon [3] [M⁻¹ s⁻¹] | EC50 (read off the curve) [4] [µg/mL] | IC50 [5] [µg/mL]
1 | B1 | ~2 |  |  |  |  |  | 
2 | B2 |  | ~0.2 | 14 | 0.00017 | 12000 | ~0.09 | ~4
